Measured values reported in PMC12232145 (BMC Microbiology, 2025).

Biological target: human plasminogen (human, UniProt P00747 20-810)
Assay: SPR

Sequence of human plasminogen (P00747 20-810): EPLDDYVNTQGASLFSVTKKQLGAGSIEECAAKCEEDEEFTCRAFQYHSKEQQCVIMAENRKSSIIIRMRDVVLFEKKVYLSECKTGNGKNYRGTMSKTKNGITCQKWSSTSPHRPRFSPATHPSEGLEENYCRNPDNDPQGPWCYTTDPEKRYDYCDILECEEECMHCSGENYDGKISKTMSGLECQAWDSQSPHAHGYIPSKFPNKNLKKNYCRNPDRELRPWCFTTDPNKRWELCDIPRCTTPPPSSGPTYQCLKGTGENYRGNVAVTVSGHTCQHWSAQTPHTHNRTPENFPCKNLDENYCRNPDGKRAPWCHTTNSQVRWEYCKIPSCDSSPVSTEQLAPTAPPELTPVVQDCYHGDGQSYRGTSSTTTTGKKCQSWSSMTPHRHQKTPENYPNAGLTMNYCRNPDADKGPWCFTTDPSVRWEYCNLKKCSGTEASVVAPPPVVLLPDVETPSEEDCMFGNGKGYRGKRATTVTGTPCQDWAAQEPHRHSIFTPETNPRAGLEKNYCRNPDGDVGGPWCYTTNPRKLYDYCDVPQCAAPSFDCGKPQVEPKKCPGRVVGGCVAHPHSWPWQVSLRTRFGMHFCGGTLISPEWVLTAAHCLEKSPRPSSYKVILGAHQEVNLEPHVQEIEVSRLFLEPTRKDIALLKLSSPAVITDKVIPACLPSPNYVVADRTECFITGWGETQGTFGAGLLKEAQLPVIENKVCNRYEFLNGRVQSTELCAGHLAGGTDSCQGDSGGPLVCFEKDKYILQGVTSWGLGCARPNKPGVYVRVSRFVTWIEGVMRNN

B1: recombinant FabG (3-ketoacyl-ACP reductase) of Streptococcus suis serotype 2 strain ZY05719 (natural protein, UniProt A0A0H3MXL9 1-244, looked up)
chain: MELTNKNVFVTGSSRGIGLAIAHKFASLGANVVLNGRGQLGQDLLDSFADYGVKVLAISGDISSAQDAKRMVAEAIETLGSVDILVNNAGITKDGMALRMTEEDFDTVLKVNLTGTFNMTQAVLKPMTKAREGAIINLSSVSGLIGNAGQANYSASKAGVIGFTKAIAREVAGRNVRVNAIAPGFIQSDMTDVLSDKIKEAMTAQIPMKRFGATEEVADVAVFLAKQEYLTGQVIAVDGGLTMQ
**Q.** Which Kd does the source give for B1 here?
**A.** 1.72 nM
